Drawing on paper doi:10.1101/2022.05.20.492803, this text covers stoichiometry N for one substance.

This experiment addresses GST protein (free GST, cleaved from GST-tagged proteins). Put plainly: SAXS.

Turning to “GST protein (free GST, cleaved from GST-tagged proteins) (enzyme)”, the stoichiometry N is 2.

As a reminder, the stoichiometry N is a count of units in the complex or per binding partner.
